The target in data set [1] is JUN (UniProt P05412). To be noted: PS at 6 linkages within the Sp1 recognition octamer; K2PtCl4 crosslinking, SDS gel.
Data set [2] has as its target T1, CREB (CRE-BP) (UniProt P15337 P15337:1-327). Put plainly: EMSA; 50 mM KCl, 15 mM Tris pH 7.5, room temperature. To be noted: chain copies: 2, label: 5'-32P. The protocol:
(§1) Binding of the ligated CRE and CRE(s)_6 sequences to the CREB protein was carried out as previously described [Dwarki et al., EMBO J. 9:225–232 (1990); chu and Orgel, Nucleic Acids Res. 19:6958 (1991)]. Approximately 0.015 pmole of the [^32P]-CRE sequences was added to ~200 ng of pure CREB protein in 10 µl of buffer containing 50 mM KCl, 15 mM Tris, (pH 7.5), 0.1 mM EDTA, 0.5 mM DTT, 180 ng acetylated BSA and 250 ng (poly[dI-dC].poly[dI-dC]) and then incubated at room temperature for 15–20 minutes. Binding was detected by gel shift assay on 6% non-denaturing gels using 40 mM Tris-borate at pH 8.2 as the electrophoresis buffer. Binding of the ligated CRE sequences to an aliquot of nuclear extract from PC12 cells (4 μg total protein) was carried out in the same way. Binding of TRE sequences to the JUN protein was carried out similarly in 10 μl of buffer containing 50 mM Tris (pH 7.9), 100 mM KCl, 1 mM EDTA, 1 mM DTT, 12.5 mM MgCl_2, 20% glycerol and 250 ng (poly[dI-dC]·poly[dI-dC]). Binding was detected by non-denaturing gel electrophoresis on 6% acrylamide, using 20 mM Tris-borate (pH 8.2) as electrophoresis buffer.
(In general: A gel shift assay detects complexes by their altered migration in electrophoresis.)

Data set [3] concerns the target T1, CREB (CRE-BP). Kind of data set: EMSA; bound more efficiently than the other oligomers; 50 mM KCl, pH 7.5. Conditions: chain copies: 2; label: 32P; closed circular dumbbell. The protocol:
as §1

The target in data set [4] is T1, CREB (CRE-BP). Kind of data set: EMSA; PS does not diminish binding; K2PtCl4 crosslinking 40-50% of binding at 2.3 mM. To be noted: chain copies: 2; label: 32P; closed circular dumbbell. The protocol:
(§2) Binding of the ligated CRE and CRE(s)_6 sequences to the CREB protein was carried out as previously described [Dwarki et al., EMBO J. 9:225–232 (1990); chu and Orgel, Nucleic Acids Res. 19:6958 (1991)]. Approximately 0.015 pmole of the [^32P]-CRE sequences was added to ~200 ng of pure CREB protein in 10 µl of buffer containing 50 mM KCl, 15 mM Tris, (pH 7.5), 0.1 mM EDTA, 0.5 mM DTT, 180 ng acetylated BSA and 250 ng (poly[dI-dC].poly[dI-dC]) and then incubated at room temperature for 15–20 minutes. Binding was detected by gel shift assay on 6% non-denaturing gels using 40 mM Tris-borate at pH 8.2 as the electrophoresis buffer. Binding of the ligated CRE sequences to an aliquot of nuclear extract from PC12 cells (4 μg total protein) was carried out in the same way. Binding of TRE sequences to the JUN protein was carried out similarly in 10 μl of buffer containing 50 mM Tris (pH 7.9), 100 mM KCl, 1 mM EDTA, 1 mM DTT, 12.5 mM MgCl_2, 20% glycerol and 250 ng (poly[dI-dC]·poly[dI-dC]). Binding was detected by non-denaturing gel electrophoresis on 6% acrylamide, using 20 mM Tris-borate (pH 8.2) as electrophoresis buffer. […]

In data set [5] the target is T1, CREB (CRE-BP). Kind of data set: EMSA; does not bind CREB; crosslinking <10% of CRE at 2 mM K2PtCl4, none at 0.3 mM. Conditions: chain copies: 2; label: 32P; closed circular dumbbell. The protocol: as §2
The target of data set [6] is T1, CREB (CRE-BP). Kind of data set: EMSA; crosslinks with K2PtCl4 at ~40% of ligCRE(s)6 efficiency. To be noted: chain copies: 2; label: 32P; closed circular dumbbell. The protocol: For crosslinking of oligonucleotide to protein, approximately 0.015 pmole of the appropriate [^32P]-labelled dumbbell oligonucleotide was first incubated with 200 ng CREB or JUN protein in 10 μl of buffer containing 50 mM KCl, 15 mM Tris (pH 7.5), 0.1 mM EDTA, […], 180 ng acetylated BSA and 250 ng (poly[dI-dC]·poly[dI-dC]) as described above. After 15 minutes at room temperature, 1–3 μl of a freshly prepared solution containing the required amount of K_2PtCl_4 or transPt^II in buffer containing 1 mM phosphate (pH 7) and 0.1 mM EDTA was added to the reaction mixture. Incubation was continued at room temperature in the dark for 1 hour. 0.5 μl of a 5% solution of SDS was then added and the crosslinked product separated from non-crosslinked oligonucleotide on an 8% polyacrylamide gel using buffer containing 90 mM Tris-borate (pH 8.2) and 0.1% SDS (SDS gels disrupt noncovalently associated DNA-protein complexes).

We go through eight molecules from US5683985, “Oligonucleotide decoys and methods relating thereto” (The Salk Institute for Biological Studies).

T1 sequence (P15337 whole entry, one chain of several): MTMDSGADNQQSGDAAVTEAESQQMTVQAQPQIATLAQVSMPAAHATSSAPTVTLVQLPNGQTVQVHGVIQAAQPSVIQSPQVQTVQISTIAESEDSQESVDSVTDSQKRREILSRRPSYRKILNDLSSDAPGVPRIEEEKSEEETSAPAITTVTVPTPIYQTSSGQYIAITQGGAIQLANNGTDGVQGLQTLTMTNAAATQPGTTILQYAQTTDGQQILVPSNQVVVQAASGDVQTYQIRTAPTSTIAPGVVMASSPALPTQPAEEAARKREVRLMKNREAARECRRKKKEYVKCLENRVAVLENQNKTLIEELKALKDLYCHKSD
JUN, sequence (P05412 whole entry): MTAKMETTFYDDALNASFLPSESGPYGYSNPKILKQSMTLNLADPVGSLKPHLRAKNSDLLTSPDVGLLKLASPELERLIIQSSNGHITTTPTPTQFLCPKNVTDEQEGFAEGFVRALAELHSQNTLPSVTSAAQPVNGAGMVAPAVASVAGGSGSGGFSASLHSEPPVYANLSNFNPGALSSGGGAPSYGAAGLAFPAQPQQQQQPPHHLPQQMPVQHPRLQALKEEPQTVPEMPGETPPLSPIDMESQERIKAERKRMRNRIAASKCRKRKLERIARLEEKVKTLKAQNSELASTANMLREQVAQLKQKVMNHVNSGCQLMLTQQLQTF

In data set [1], “CCTCTCGCTCGCCCCGCCCCGATCCTCTCGATCGGGGCGGGGCGAG [ligSp1(s)6 dumbbell]” had a binding signal (% of ligTRE(s)6 crosslinking) below 10.

B1: CRE 46-mer nicked dumbbell (structured_DNA)
DNA: GTAACTCTCTTACCATGACGTCAATTTCTCTCAAATTGACGTCATG
B1: in data set [2] (nicked dumbbell), the binding result was “binds”.

B2: ligCRE dumbbell (structured_DNA)
DNA: GTAACTCTCTTACCATGACGTCAATTTCTCTCAAATTGACGTCATG
For the molecule B2, the binding result in data set [3] was “binds”.

B3: ligCRE(s)6 dumbbell (structured_DNA)
DNA: GTAACTCTCTTACCATGACGTCAATTTCTCTCAAATTGACGTCATG
modifications: PS at 6 linkages within the octamer (T(s)GAC(s)GTC(s)A on both strands)
B3: in data set [4], the binding result is recorded as “binds”.

B4: ligSp1(s)6 dumbbell (structured_DNA)
DNA: CCTCTCGCTCGCCCCGCCCCGATCCTCTCGATCGGGGCGGGGCGAG
modifications: PS at 6 linkages within the Sp1 recognition octamer
In the case of B4, the binding result in data set [5] was “no binding”.

B5: CRE 18-mer duplex (dsDNA)
DNA 1: AAATTGACGTCATGGTAA
DNA 2: TTACCATGACGTCAATTT
As to B5, in data set [2], the binding result is “binds”.

B6: ligTRE(s)6 dumbbell (structured_DNA)
DNA: ACTCTCTGTGTCTGACTCATGCTCTCTCAGCATGAGTCAGACAC
modifications: PS at 6 linkages within the recognition sequence
In the case of B6, the binding signal in data set [6] was ~0.1 fold of ligCRE(s)6.

B7: CRE 41-mer hairpin (structured_DNA)
DNA: AAATTGACGTCATGGTAACTCTCTTACCATGACGTCAATTT
For B7, in data set [2] (hairpin with CTCTC loop), the binding result is given as “binds”.
